Source: PMC5660092

Molecular target: Bcl-2 (UniProt P10415)
Test: co-IP of Flag-Beclin 1
Conditions: reference: wild type; sites S90

binding against the reference: stronger
Substance: Beclin 1 (from UniProt Q14457) S90A
